# In the supplement of paper PMC9170038:
# Tested on: MS2 coat protein
# Assay: apparent KD of MS2 coat protein; designed switch direction (-1 OFF switch, 1 ON switch): 1; higher = weaker reporter binding
# Method in brief: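 Apparent KD, taken as the median over clusters for each design, was obtained by curve-fitting normalised cluster fluorescence. Designed RNA switches had been transcribed on Illumina chips by stalled E. coli RNA polymerase and titrated with SNAP-549-labelled MS2 coat protein, doubling from 0.7 or 1.5 nM to 3 µM.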
# [1] = input ligand: microRNA oligo, concentration not stated
Sequence,apparent KD of MS2 coat protein (input ligand: FMN 200 uM) [nM],apparent KD of MS2 coat protein [1] [nM],apparent KD of MS2 coat protein (input ligand: none) [nM],"apparent KD of MS2 coat protein (Eterna round: R95, input ligand: FMN 200 uM) [nM]","apparent KD of MS2 coat protein (Eterna round: R95, input ligand: microRNA oligo, concentration not stated) [nM]","apparent KD of MS2 coat protein (Eterna round: R95, input ligand: none) [nM]"
"UGAACCUUCACAGGAUAUCAUGCGAAAAUUGCGUGAGAAGGGUGAAUACGGUGUUCAUAGUUGCACAUGAGGAUCACCCAUGUA [SameState NG1 #54] (Eterna round: R96, puzzle: Same State NG 1)",141,69.2,316,–,–,–
"UGAAUAGUCACAGGAUAUCAUGCGAAAAUUGCGUGAGAAGGGUGGGUGUUGUGCUCAAAGUGCUACAUGAGGAUCACCCAUGUU [SameState NG1 #41] (Eterna round: R96, puzzle: Same State NG 1)",1540,638,1210,–,–,–
"UGAAUAGUGAUAGGAUAUACAUGAGGAAUCCUCGUAGAAGGAUCAUAACAUGAGGAUCACCCAUGUAGCCGUCGAAAGACGGCA [Mat - Same State NG 1 - JL mod - D58] (Eterna round: R96, puzzle: Same State NG 1)",200,72,122,–,–,–
"UGAAUAGUUACAGGAUAUGAGCCGUAAAUUGGGUCAGAAGGGUGGGUGUUCUGCGCUGUGUGUUACAUGAGGAUCACCCAUGUU [SameState NG1 #31] (Eterna round: R96, puzzle: Same State NG 1)",162,34.9,63.4,–,–,–
"UGAAUAUUUACAGGAUAUGAGUUGUAUAGUGGAUCAGAAGGGUGGGUGUUUUGCACGGUGUGUUACAUGAGGAUCACCCAUGUU [SameState NG1 #26] (Eterna round: R96, puzzle: Same State NG 1)",412,206,196,–,–,–
"UGACACACGGCAGGAUAUCGAUUCCAAAGGAAUCGAGAAGGGCCUCAUGUCGUGGAAACGUGACAUGAGGAUCACCCAUGUUGC [Omei SS(NG)1 Cv15] (Eterna round: R96, puzzle: Same State NG 1)",222,15.8,96,–,–,–
"UGACACACGGCAGGAUAUGCUUAGCAAAGCUAAGCAGAAGGGCCUCAUGUCGUGGAAAUGUGACAUGAGGAUCACCCAUGUCGC [Omei SS(NG)1 Cv5] (Eterna round: R96, puzzle: Same State NG 1)",27.3,17.8,29.9,–,–,–
UGAGCCGGCACUGAGGAUAUUCAUAUUUAAACAUGAGGAUCACCCAUGUAGGCCAGAAGGCCUUGGGAGAAGGCAGGUCGGCUCC [salish99_ss2_r3_079] (puzzle: Same State 2),–,–,–,25.7,264,459
"UGAUCGCUUGGAGGAUAUCCAACUAUCCUAGUUGGAGAAGGCCAAGCUACAGAGCUAAGCUUGGAAGUCACUUCGAAUCAACAC [pwkr ssNG1 F9.4] (Eterna round: R96, puzzle: Same State NG 1)",2.23,129,155,–,–,–
"UGCCGGAUACCGACUACAUGAGGAUCACCCAUGUUAUCUCGUUAGGAUAUACUAACAACAGAUUAGUAGAAGGGACGCGGGCUU [Eternabot solution 23] (Eterna round: R96, puzzle: Same State NG 3)",25.5,24.6,30.7,–,–,–
"UGCUAGUGGGUAGGAUAUCUAGGAUAUGGGAAAGACUAAGUCUGUAGGUCACCUAACCCAGAAGGAGAGAAGGACCAUUCAGCU [pwkr ssNG2 2FMN + F9.26] (Eterna round: R96, puzzle: Same State NG 2)",165,22.5,38,–,–,–
"UGCUUCGUGUAAGGAUAUGCUGCCGUUUCGGCUGCAGAAGGUACUAUAAUACAUGAGGAUCACCCAUGUCUCUCGCUUUGCGGG [salish99_SSng1_r04_305] (Eterna round: R96, puzzle: Same State NG 1)",–,42.1,–,–,–,–
"UGGAGACGUCAAGGAUAUGCUACCGUUUCGGUAGCAGAAGGUGAUCACAUGAGGAUCACCCAUGUAUGCAUGCGUGAGCGUGCU [JL SSNG1 3.52] (Eterna round: R96, puzzle: Same State NG 1)",72.1,2.49,6.24,–,–,–
"UGGAUCUAGGCUUGCCUGGGUCCAUGCUGACAUGAGGAUCACCCAUGUGCAUCCUACAAGCUUUUUGCUUGUCUGCC (Eterna round: R96, puzzle: Sensor for hsa-mir-208a)",416,267,216,–,–,–
